For assay [1], the system named is A/Aichi/02/1968-X31 (H3N2). Details: species or system BALB/c mice. The following applies: mouse, in vivo.
The subject of assay [2] is A/Aichi/02/1968-PR8-X31(H3N2)-infected MDCKs. It is filed as cell-based, canine.
The subject of assay [3] is A/Aichi/02/1968-X31 (H3N2). Set-up: species or system BALB/c mice. The following applies: mouse, in vivo, iv, 15 mg/kg.
Assay [4] concerns A/Victoria/316/2011 (H3N2). It is filed as cell-based, influenza A virus.
Assay [5] has as its target A/Hiroshima/52/2005 (H3) HA foldon protein. It counts as binding, influenza A virus.
In the next assay the test system is group 1 strains (HA). It counts as binding, influenza A virus.
Assay [6] deals with A/Shanghai/01/2013 (H7) HA foldon protein. It is filed as binding, influenza A virus. As to conditions: 37° C.
The test system of assay [7] is A/Aichi/02/1968-PR8-X31 (H3N2). It is filed as cell-based, influenza A virus. As to conditions: read-out: Neutralization activity IC50.
Assay [8] has as its system A/Philippines/01/1982 (H3N2). It is filed as cell-based, influenza A virus. As to conditions: read-out: Neutralization activity IC50.
Assay [9] concerns A/Shanghai/01/2013-PR8 (H7N9). It counts as cell-based, influenza A virus. The following applies: read-out: Neutralization activity IC50.

Where a chain is given by its changes, count along the chain named. “Also recorded” adds a separate entry of the source. Like-named read-outs stand apart in the source and are kept apart here. Where only a bound is given, the exact number is not on record here.

Consider three molecules from patent US11780907B2, “Human antibodies to influenza hemagglutinin” (Regeneron Pharmaceuticals, Inc., priority 2018, dated 2023).

`CCOC(=O)C1=C[C@@H](OC(CC)CC)[C@H](NC(C)=O)[C@@H](N)C1` [oseltamivir, reference compound] displayed a survival in assay [1] of 80%.

B1: H1H14611N2: fully human anti-influenza A group 2 HA monoclonal antibody, HCVR/LCVR SEQ ID NOs: 2/10 (antibody, V domains shown)
VH: EVQLVESGGGLVKPGGSLRLSCAASGFTFSGFSMNWVRQVPGKGLEWVSSISTSGNYMYYADSVKGRFTISRDNAKKSFSLQMNSLRAEDSAIYYCARGGGYNWNLFDYWGQGSLVTVSS
VL: EIVLTQSPGTLSLSPGERATLSCRASQSLNSNYLAWYQQKPGQAPRLLIYGASSRATGIPDRFSGSGSGTDFTLTITRLESEDFAVYYCQQYGNSPLTFGGGTKVEIK
As to B1, the “maximum lysis (percent specific lysis)” value in assay [2] is 78.3%. Also, the survival entry in [3] is “One hundred percent survival; also recorded: survived; also recorded: complete protection”; in assay [1] (7 mg/kg), 80%; in assay [1] (15 mg/kg), 100%. Further, the “lowest concentration of mAb where no RBC hemagglutination was detected” value in [4] is listed as 41.7 nM. In addition, the Kd (in general, the free concentration of one partner at which half of the binding sites on the other are occupied at equilibrium, for simple one-to-one binding) in [5] amounted to 8.22 nM. The “binding to group 1 strains” value in the assay on group 1 strains (HA) is given as “did not bind”. Also, in [6], the KD result is listed as “IC^§”. For the same molecule, the “effect when dosed in combination with oseltamivir” value in assay [1] is given as “additive protective effect; also recorded: additive efficacy”.

B2: H1H14612N2: fully human anti-influenza A group 2 HA monoclonal antibody, HCVR/LCVR SEQ ID NOs: 18/26 (antibody, V domains shown)
VH: B1 VH with T28S, V40A
VL: B1 VL with T70A, T77S
As to B2, the “maximum lysis (percent specific lysis)” value in [2] turned out to be 86.3%. Besides, the EC50 – broadly, the concentration giving half of the maximal effect – in assay [2] (read-out: CDC EC50) was determined as 126 nM. Further, the values for the IC50 in assay [7], in assay [8] and in assay [9] were 5.7 nM, 37.6 nM and above 6670 nM, respectively. The survival result in [3] is reported as “One hundred percent survival; also recorded: survived; also recorded: complete protection”. The “lowest concentration of mAb where no RBC hemagglutination was detected” value in [4] is 166.7 nM.
